Results published in publication PMC12416549 (2024).
Residue numbers refer to the chain shown, from its start. Names and notes keep the numbering of the source.

T1: TNFR1 (Homo sapiens, UniProt P19438)
T1 chain: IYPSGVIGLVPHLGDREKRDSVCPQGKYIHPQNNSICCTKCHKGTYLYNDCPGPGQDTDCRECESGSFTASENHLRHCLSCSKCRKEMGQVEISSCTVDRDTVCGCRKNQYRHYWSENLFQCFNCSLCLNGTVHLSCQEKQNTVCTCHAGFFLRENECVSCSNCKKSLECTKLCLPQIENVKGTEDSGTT

B1: R92Y (designed binder)
chain: MTLQELLREEALRRAEAEAFRYALELLAEKFPEQKEYLLDLAEEIESQIRSLSGVDVEDVRKFLDKEWAWVKELLAEHPAELAEVEAARAAYLAELRAEVEAKVAA
B2: F31Q (designed binder)
chain: B1 chain with F31Q, Y92R
B3: L96Q (designed binder)
chain: B1 chain with Y92R, L96Q
B4: V104Q (designed binder)
chain: B1 chain with Y92R, V104Q
B5: F63D (designed binder)
chain: B1 chain with F63D, Y92R
B6: A28Y (designed binder)
chain: B1 chain with A28Y, Y92R
B7: H78C (designed binder)
chain: B1 chain with H78C, Y92R
B8: A105N (designed binder)
chain: B1 chain with Y92R, A105N
B9: W70T (designed binder)
chain: B1 chain with W70T, Y92R
B10: W70Y (designed binder)
chain: B1 chain with W70Y, Y92R
B11: W70D (designed binder)
chain: B1 chain with W70D, Y92R
B12: G54T (designed binder)
chain: B1 chain with G54T, Y92R
B13: E101H (designed binder)
chain: B1 chain with Y92R, E101H
B14: Q48K (designed binder)
chain: B1 chain with Q48K, Y92R
B15: E73G (designed binder)
chain: B1 chain with E73G, Y92R
B16: L12C (designed binder)
chain: B1 chain with L12C, Y92R
B17: E9F (designed binder)
chain: B1 chain with E9F, Y92R
B18: K62T (designed binder)
chain: B1 chain with K62T, Y92R
B19: A11I (designed binder)
chain: B1 chain with A11I, Y92R
B20: K72D (designed binder)
chain: B1 chain with K72D, Y92R
B21: W70H (designed binder)
chain: B1 chain with W70H, Y92R
B22: L26M (designed binder)
chain: B1 chain with L26M, Y92R
B23: R14K (designed binder)
chain: B1 chain with R14K, Y92R
B24: L41G (designed binder)
chain: B1 chain with L41G, Y92R
B25: A15E (designed binder)
chain: B1 chain with A15E, Y92R
B26: E36V (designed binder)
chain: B1 chain with E36V, Y92R
B27: V85P (designed binder)
chain: B1 chain with V85P, Y92R
B28: A94T (designed binder)
chain: B1 chain with Y92R, A94T
B29: P32V (designed binder)
chain: B1 chain with P32V, Y92R
B30: K30W (designed binder)
chain: B1 chain with K30W, Y92R
B31: W70K (designed binder)
chain: B1 chain with W70K, Y92R
B32: F31A (designed binder)
chain: B1 chain with F31A, Y92R
B33: E67R (designed binder)
chain: B1 chain with E67R, Y92R
B34: D40Q (designed binder)
chain: B1 chain with D40Q, Y92R
B35: V55E (designed binder)
chain: B1 chain with V55E, Y92R
B36: E10K (designed binder)
chain: B1 chain with E10K, Y92R
B37: A42W (designed binder)
chain: B1 chain with A42W, Y92R
B38: A105K (designed binder)
chain: B1 chain with Y92R, A105K
B39: A83C (designed binder)
chain: B1 chain with A83C, Y92R
B40: F20M (designed binder)
chain: B1 chain with F20M, Y92R
B41: A88D (designed binder)
chain: B1 chain with A88D, Y92R
B42: Q34T (designed binder)
chain: B1 chain with Q34T, Y92R
B43: V55N (designed binder)
chain: B1 chain with V55N, Y92R

Target: T1, TNFR1
Assay: yeast display SC50

| apparent Kd (screen) | Binder |
| --- | --- |
| 0.49 nM | B1 |
| 0.653 nM | B2 |
| 0.539 nM | B3 |
| 0.49 nM | B4 |
| 7.07 nM | B5 |
| 22.2 nM | B6 |
| 0.593 nM | B7 |
| 0.593 nM | B8 |
| 29.5 nM | B9 |
| 1.86 nM | B10 |
| 12.5 nM | B11 |
| 0.446 nM | B12 |
| 0.718 nM | B13 |
| 7.07 nM | B14 |
| 0.718 nM | B15 |
| 0.79 nM | B16 |
| 0.49 nM | B17 |
| 0.539 nM | B18 |
| 0.368 nM | B19 |
| 1.05 nM | B20 |
| 12.5 nM | B21 |
| 0.593 nM | B22 |

| apparent Kd (screen) | Binder |
| --- | --- |
| 0.49 nM | B23 |
| 12.5 nM | B24 |
| 0.718 nM | B25 |
| 1.05 nM | B26 |
| 2.25 nM | B27 |
| 0.539 nM | B28 |
| 0.593 nM | B29 |
| 0.653 nM | B30 |
| 5.84 nM | B31 |
| 0.49 nM | B32 |
| 8.56 nM | B33 |
| 0.446 nM | B34 |
| 15.2 nM | B35 |
| 8.56 nM | B36 |
| 4.83 nM | B37 |
| 0.869 nM | B38 |
| 0.869 nM | B39 |
| 0.869 nM | B40 |
| 0.593 nM | B41 |
| 0.539 nM | B42 |
| 0.956 nM | B43 |
